Test results reported in PMC6982540.

Biological target: His-PTP1B (residues 1–321), reversibly oxidized and phosphorylated on Ser50 (UniProt P18031)
Test: SPR

UniProt P18031, sequence (P18031 1-321): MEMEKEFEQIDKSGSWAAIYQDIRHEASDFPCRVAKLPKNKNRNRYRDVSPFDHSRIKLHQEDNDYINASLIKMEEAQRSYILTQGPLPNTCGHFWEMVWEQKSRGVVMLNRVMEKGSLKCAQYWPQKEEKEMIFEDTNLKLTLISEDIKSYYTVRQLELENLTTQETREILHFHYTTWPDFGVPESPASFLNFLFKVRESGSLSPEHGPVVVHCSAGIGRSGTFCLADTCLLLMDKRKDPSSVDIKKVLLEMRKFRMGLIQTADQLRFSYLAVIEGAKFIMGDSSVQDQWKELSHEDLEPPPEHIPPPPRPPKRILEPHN

## GST-14-3-3-ζ (from UniProt P63104 1-245) (natural protein)
  koff: 0.00458 s⁻¹
